This experiment has as its target low-density lipoprotein receptor-related protein 6 (LRP6), O75581.

B1: LysRS-DKK2-Fc fusion protein, Q9UBU2 34-259 (Fc fusion)
chain: KLNSIKSSLGGETPGQAANRSAGMYQGLAFGGSKKGKNLGQAYPCSSDKECEVGRYCHSPHQGSSACMVCRRKKKRCHRDGMCCPSTRCNNGICIPVTESILTPHIPALDGTRHRDRNHGHYSNHDLGWQNLGRPHTKMSHIKGHEGDPCLRSSDCIEGFCCARHFWTKICKPVLHQGEVCTKQRKKGSHGLEIFQRCDCAKGLSCKVWKDATYSSKARLHVCQKI
With B1, the TOPflash luciferase reporter activity in HEK 293T cells, percent inhibition, two concentrations up to 500 ng/mL (4.2 nM) is 47%.

B2: TEV-cleaved LysRS-DKK2-Fc (DKK2-Fc released by TEV protease), Q9UBU2 34-259 (Fc fusion)
chain: B1 chain
Consider B2, for which the TOPflash luciferase reporter activity in HEK 293T cells, percent inhibition; TEV-cleaved LysRS-DKK2-Fc (2): mixed with TEV protease and immediately added to cells worked out at 18%.
